# B1: trimeric fusion protein PA-sfGFP-tLM511 (complex)
# chain 1: ENVERWQGQYEGLRGQDLGQAVLDAGHSVSTLEKTLPQLLAKLSILENRGVHNASLALSASIGRVRELIAQARGAASKVKVPMKFNGRSGVQLRTPRDLADLAAYTALKFYLQGPEPEPGQGTEDRFVMYMGSRQATGDYMGVSLRDKKVHWVYQLGEAGPAVLSIDEDIGEQFAAVSLDRTLQFGHMSVTVERQMIQETKGDTVAPGAEGLLNLRPDDFVFYVGGYPSTFTPPPLLRFPGYRGCIEMDTLNEEVVSLYNFERTFQLDTAVDRPCARSKSTGDPWLTDGSYLDGTGFARISFDSQISTTKRFEQELRLVSYSGVLFFLKQQSQFLCLAVQEGSLVLLYDFGAGLKKAVPLQPPPPLTSASKAIQVFLLGGSRKRVLVRVERATVYSVEQDNDLELADAYYLGGVPPDQLPPSLRRLFPTGGSVRGCVKGIKALGKYVDLKRLNTTGVSAGCTADLLVGRAMTFHGHGFLRLALSNVAPLTGNVYSGFGFHSAQDSALLYYRASPDGLCQVSLQQGRVSLQLLRTEVKTQAGFADGAPHYVAFYSNATGVWLYVDDQLQQMKPHRGPPPELQPQPEGPPRLLLGGLPESGTIYNFSGCISNVFVQRLLGPQRVFDLQQNLGSVNVSTGCAPALQAQTPGLGPRGLQATARKASRRSRQPARHPA
# chain 2: not shown
# chain 3: DTVDLNKLNEIEGTLNKAKDEMKVSDLDRKVSDLENEAKKQEAAIMDYNRDIEEIMKDIRNLEDIRKTLPSGCFNTPSIEKP
# modifications: Mn2+; A cytoplasmic form assumed
# B2: trimeric fusion protein PA-sfGFP-tLM511 (complex)
# chain 1: B1 chain 1
# chain 2: not shown
# chain 3: B1 chain 3
# modifications: assayed with 0.5 mM Mn2+; X1 variant without the 39-residue X2 insert (P23229 displayed = X1X2A; mature 988 = 1050 gives offset 62 after X2); A/B cytoplasmic form not given, A taken; alpha6 may be furin-cleaved; signal peptides removed
# B3: trimeric fusion protein PA-sfGFP-tLM511 (complex)
# chain 1: B1 chain 1
# chain 2: not shown
# chain 3: B1 chain 3
# How the values were obtained:
# Test in all cases: FACS
# [1] = target: α6β1 integrin on Expi293F cells, α6 E219A (human, UniProt P05556 21-798)
# Chain of α6β1 integrin on Expi293F cells, α6 E219A (chain, as listed by the source E219A, chain 1 of 2): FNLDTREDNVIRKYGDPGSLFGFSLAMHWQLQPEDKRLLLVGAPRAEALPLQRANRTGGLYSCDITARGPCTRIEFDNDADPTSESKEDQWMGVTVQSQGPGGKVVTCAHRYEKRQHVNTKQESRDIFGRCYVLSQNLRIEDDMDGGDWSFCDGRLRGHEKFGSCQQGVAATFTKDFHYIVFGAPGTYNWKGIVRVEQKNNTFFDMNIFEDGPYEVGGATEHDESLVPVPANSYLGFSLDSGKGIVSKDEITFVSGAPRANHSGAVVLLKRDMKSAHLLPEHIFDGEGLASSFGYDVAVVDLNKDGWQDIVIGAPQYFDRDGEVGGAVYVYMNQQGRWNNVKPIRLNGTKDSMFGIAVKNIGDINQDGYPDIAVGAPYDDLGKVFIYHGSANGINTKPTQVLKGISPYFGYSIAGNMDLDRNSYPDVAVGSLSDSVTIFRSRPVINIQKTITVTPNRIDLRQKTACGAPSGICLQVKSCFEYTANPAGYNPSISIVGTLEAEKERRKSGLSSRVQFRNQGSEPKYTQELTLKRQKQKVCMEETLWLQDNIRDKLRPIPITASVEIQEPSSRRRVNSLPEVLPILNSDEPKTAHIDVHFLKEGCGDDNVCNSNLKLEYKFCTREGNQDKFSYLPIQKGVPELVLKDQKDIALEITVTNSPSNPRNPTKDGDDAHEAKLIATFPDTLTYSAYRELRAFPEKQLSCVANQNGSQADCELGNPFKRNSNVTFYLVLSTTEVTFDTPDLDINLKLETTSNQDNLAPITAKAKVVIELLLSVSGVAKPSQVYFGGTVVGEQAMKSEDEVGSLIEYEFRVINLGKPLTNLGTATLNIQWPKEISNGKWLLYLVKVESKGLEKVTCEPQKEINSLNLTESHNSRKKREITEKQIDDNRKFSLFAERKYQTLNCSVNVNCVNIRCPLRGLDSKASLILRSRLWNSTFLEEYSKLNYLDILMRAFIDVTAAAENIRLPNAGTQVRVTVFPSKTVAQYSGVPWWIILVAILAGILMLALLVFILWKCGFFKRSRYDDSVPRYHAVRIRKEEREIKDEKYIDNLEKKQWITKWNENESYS
# Chain of α6β1 integrin on Expi293F cells, α6 E219A (P05556 21-798, chain 2 of 2): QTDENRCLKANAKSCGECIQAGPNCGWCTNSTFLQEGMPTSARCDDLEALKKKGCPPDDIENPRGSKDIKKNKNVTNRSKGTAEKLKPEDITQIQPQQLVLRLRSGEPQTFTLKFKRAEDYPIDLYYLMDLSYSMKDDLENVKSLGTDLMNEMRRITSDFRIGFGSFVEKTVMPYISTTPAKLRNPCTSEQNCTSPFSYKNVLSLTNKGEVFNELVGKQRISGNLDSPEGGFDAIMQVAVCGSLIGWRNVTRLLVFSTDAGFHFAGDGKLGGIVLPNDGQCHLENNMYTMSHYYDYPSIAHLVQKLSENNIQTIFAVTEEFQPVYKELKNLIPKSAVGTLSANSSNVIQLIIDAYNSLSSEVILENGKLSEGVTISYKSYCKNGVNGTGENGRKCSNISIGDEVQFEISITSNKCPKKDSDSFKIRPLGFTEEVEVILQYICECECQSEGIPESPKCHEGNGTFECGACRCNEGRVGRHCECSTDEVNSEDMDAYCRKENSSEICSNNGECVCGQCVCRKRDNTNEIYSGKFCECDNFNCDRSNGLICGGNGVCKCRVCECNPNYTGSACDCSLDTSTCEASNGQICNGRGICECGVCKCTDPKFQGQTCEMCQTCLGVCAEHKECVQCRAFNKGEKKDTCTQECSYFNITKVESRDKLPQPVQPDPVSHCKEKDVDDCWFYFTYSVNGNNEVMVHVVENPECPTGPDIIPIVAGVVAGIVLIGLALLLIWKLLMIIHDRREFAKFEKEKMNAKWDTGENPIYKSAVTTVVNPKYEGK
# [2] = target: α6β1 integrin on Expi293F cells, α6 R157A (human, UniProt P05556 21-798)
# Chain of α6β1 integrin on Expi293F cells, α6 R157A (chain, as listed by the source R157A, chain 1 of 2): as the sequence (chain, as listed by the source E219A, chain 1 of 2) above, with R157A, A219E counted along it
# Chain of α6β1 integrin on Expi293F cells, α6 R157A (P05556 21-798, chain 2 of 2): as the sequence (P05556 21-798, chain 2 of 2) above
# [3] = target: α6β1 integrin on Expi293F cells, α6 E221A (human, UniProt P05556 21-798)
# Chain of α6β1 integrin on Expi293F cells, α6 E221A (chain, as listed by the source E221A, chain 1 of 2): as the sequence (chain, as listed by the source E219A, chain 1 of 2) above, with A219E, E221A counted along it
# Chain of α6β1 integrin on Expi293F cells, α6 E221A (P05556 21-798, chain 2 of 2): as the sequence (P05556 21-798, chain 2 of 2) above
# [4] = target: α6β1 integrin on Expi293F cells, α6 D205A (human, UniProt P05556 21-798)
# Chain of α6β1 integrin on Expi293F cells, α6 D205A (chain, as listed by the source D205A, chain 1 of 2): as the sequence (chain, as listed by the source E219A, chain 1 of 2) above, with D205A, A219E counted along it
# Chain of α6β1 integrin on Expi293F cells, α6 D205A (P05556 21-798, chain 2 of 2): as the sequence (P05556 21-798, chain 2 of 2) above
# [5] = target: α6β1 integrin on Expi293F cells, α6 D153A (human, UniProt P05556 21-798)
# Chain of α6β1 integrin on Expi293F cells, α6 D153A (chain, as listed by the source D153A, chain 1 of 2): as the sequence (chain, as listed by the source E219A, chain 1 of 2) above, with D153A, A219E counted along it
# Chain of α6β1 integrin on Expi293F cells, α6 D153A (P05556 21-798, chain 2 of 2): as the sequence (P05556 21-798, chain 2 of 2) above
# [6] = target: human α6β1 integrin transiently expressed on Expi293F cells, wild type (human, UniProt P05556 21-798)
# Chain of human α6β1 integrin transiently expressed on Expi293F cells, wild type (chain, as listed by the source, chain 1 of 2): as the sequence (chain, as listed by the source E219A, chain 1 of 2) above, with A219E counted along it
# Chain of human α6β1 integrin transiently expressed on Expi293F cells, wild type (P05556 21-798, chain 2 of 2): as the sequence (P05556 21-798, chain 2 of 2) above
# [7] = target: α6β1 integrin on Expi293F cells, α6 X1-ΔC (human, UniProt P05556 21-798)
# Chain of α6β1 integrin on Expi293F cells, α6 X1-ΔC (P05556 whole entry, looked up, stated change not applied): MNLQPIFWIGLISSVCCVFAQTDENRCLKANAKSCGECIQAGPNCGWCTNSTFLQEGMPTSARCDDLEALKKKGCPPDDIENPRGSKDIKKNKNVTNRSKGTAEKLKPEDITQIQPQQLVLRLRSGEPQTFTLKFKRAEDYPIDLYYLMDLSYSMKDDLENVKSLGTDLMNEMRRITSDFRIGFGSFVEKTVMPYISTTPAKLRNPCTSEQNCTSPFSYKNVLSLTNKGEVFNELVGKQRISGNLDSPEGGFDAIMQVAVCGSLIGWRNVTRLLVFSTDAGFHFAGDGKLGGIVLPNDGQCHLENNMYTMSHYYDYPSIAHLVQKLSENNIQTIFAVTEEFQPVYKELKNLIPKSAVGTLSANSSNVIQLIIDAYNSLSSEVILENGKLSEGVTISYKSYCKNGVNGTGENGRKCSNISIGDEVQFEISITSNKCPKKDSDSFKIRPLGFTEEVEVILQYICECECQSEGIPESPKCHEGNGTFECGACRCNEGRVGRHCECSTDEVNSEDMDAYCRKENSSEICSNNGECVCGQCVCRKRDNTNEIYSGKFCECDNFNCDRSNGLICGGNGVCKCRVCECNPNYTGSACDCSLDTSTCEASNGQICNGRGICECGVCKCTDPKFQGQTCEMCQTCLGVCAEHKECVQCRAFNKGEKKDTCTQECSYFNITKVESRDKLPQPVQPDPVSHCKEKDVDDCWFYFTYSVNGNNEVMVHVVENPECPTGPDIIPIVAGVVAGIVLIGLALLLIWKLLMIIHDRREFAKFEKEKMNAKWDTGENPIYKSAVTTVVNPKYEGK
binder,measurement,setting,value
B1,Kd,[1],134 nM
same,Kd,[2],28.8 nM
same,Kd,[3],32.5 nM
same,Kd,[4],60.1 nM
same,Kd,[5],45.2 nM
B2,Kd,[6],12.5 nM
B3,Kd,[7],127 nM
